Data: publication PMC12667517, “Gigaxonin Potentiates Antiviral Innate Immune Responses by Targeting cGAS and TREX1” (Advanced Science, 2025)

B1: endogenous IRF3 in THP-1 cells, Q14653 1-427 (natural protein)
chain: MGTPKPRILPWLVSQLDLGQLEGVAWVNKSRTRFRIPWKHGLRQDAQQEDFGIFQAWAEATGAYVPGRDKPDLPTWKRNFRSALNRKEGLRLAEDRSKDPHDPHKIYEFVNSGVGDFSQPDTSPDTNGGGSTSDTQEDILDELLGNMVLAPLPDPGPPSLAVAPEPCPQPLRSPSLDNPTPFPNLGPSENPLKRLLVPGEEWEFEVTAFYRGRQVFQQTISCPEGLRLVGSEVGDRTLPGWPVTLPDPGMSLTDRGVMSYVRHVLSCLGGGLALWRAGQWLWAQRLGHCHTYWAVSEELLPNSGHGPDGEVPKDKEGGVFDLGPFIVDLITFTEGSGRSPRYALWFCVGESWPQDQPWTKRLVMVKVVPTCLRALVEMARVGGASSLENTVDLHISNSHPLSLTSDQYKAYLQDLVEGMDFQGPGES
B2: endogenous gigaxonin in THP-1 cells (natural protein, human (endogenous in THP-1), UniProt Q9H2C0 1-597, looked up)
chain: MAEGSAVSDPQHAARLLRALSSFREESRFCDAHLVLDGEEIPVQKNILAAASPYIRTKLNYNPPKDDGSTYKIELEGISVMVMREILDYIFSGQIRLNEDTIQDVVQAADLLLLTDLKTLCCEFLEGCIAAENCIGIRDFALHYCLHHVHYLATEYLETHFRDVSSTEEFLELSPQKLKEVISLEKLNVGNERYVFEAVIRWIAHDTEIRKVHMKDVMSALWVSGLDSSYLREQMLNEPLVREIVKECSNIPLSQPQQGEAMLANFKPRGYSECIVTVGGEERVSRKPTAAMRCMCPLYDPNRQLWIELAPLSMPRINHGVLSAEGFLFVFGGQDENKQTLSSGEKYDPDANTWTALPPMNEARHNFGIVEIDGMLYILGGEDGEKELISMECYDIYSKTWTKQPDLTMVRKIGCYAAMKKKIYAMGGGSYGKLFESVECYDPRTQQWTAICPLKERRFGAVACGVAMELYVFGGVRSREDAQGSEMVTCKSEFYHDEFKRWIYLNDQNLCIPASSSFVYGAVPIGASIYVIGDLDTGTNYDYVREFKRSTGTWHHTKPLLPSDLRRTGCAALRIANCKLFRLQLQQGLFRIRVHSP
notes: By native PAGE both dimer and monomer in the steady state; source: endogenous, THP-1 lysate

Assays:
[1] = molecular target: T1, endogenous IRF3 in THP-1 cells (human (endogenous in THP-1)), Q14653; assay: native gel or EMSA; native PAGE of THP-1 cell lysates, cells infected with HSV-1 (MOI = 1) for the indicated times; settings: remark: other sources report otherwise
T1 chain: B1 chain

[2] = molecular target: the molecule itself; assay: as above

Binder | stoichiometry N [1] | stoichiometry N [2]
B1 | 2 | –
B2 | – | 2
